Results published in US20190309059A1 (SHANGHAI PHARMAEXPLORER, published 2019).
Values belong to the binder of their own block, whether it stands above or below them.

Columns and labels:
[1] = target: his-labeled human IL-13 (immunogen A) (human) (UniProt P35225); test: cell-based or functional assay
[2] = target: cynomolgus IL-13 (purchased from sino biological) (cynomolgus) (UniProt Q0PW92); test: ELISA, cynomolgus IL-13; antibody at 0.53 nM
[3] = target: cynomolgus IL-13 (purchased from sino biological) (cynomolgus) (UniProt Q0PW92); test: ELISA, cynomolgus IL-13; antibody at 13.3 nM
[4] = target: cynomolgus IL-13 (purchased from sino biological) (cynomolgus) (UniProt Q0PW92); test: ELISA, cynomolgus IL-13; antibody at 2.67 nM
[5] = target: cynomolgus IL-13 (purchased from sino biological) (cynomolgus) (UniProt Q0PW92); test: ELISA, cynomolgus IL-13; antibody at 0.004 nM
[6] = target: cynomolgus IL-13 (purchased from sino biological) (cynomolgus) (UniProt Q0PW92); test: ELISA, cynomolgus IL-13; antibody at 0.021 nM
[7] = target: his-labeled human IL-13 (immunogen A) (human) (UniProt P35225); test: ELISA, biotin-immunogen A; antibody at 0.11 nM
[8] = target: his-labeled human IL-13 (immunogen A) (human) (UniProt P35225); test: FACS blocking, biotin-IL-13 on IL-13Ra2 HEK293 cells; antibody at 0.01 nM
[9] = target: his-labeled human IL-13 (immunogen A) (human) (UniProt P35225); test: FACS blocking, biotin-IL-13 on IL-13Ra2 HEK293 cells; antibody at 0.05 nM
[10] = target: his-labeled human IL-13 (immunogen A) (human) (UniProt P35225); test: FACS blocking, biotin-IL-13 on IL-13Ra2 HEK293 cells; antibody at 0.27 nM
[11] = target: his-labeled human IL-13 (immunogen A) (human) (UniProt P35225); test: FACS blocking, biotin-IL-13 on IL-13Ra2 HEK293 cells; antibody at 1.33 nM
[12] = target: his-labeled human IL-13 (immunogen A) (human) (UniProt P35225); test: FACS blocking, biotin-IL-13 on IL-13Ra2 HEK293 cells; antibody at 6.67 nM
[13] = target: his-labeled human IL-13 (immunogen A) (human) (UniProt P35225); test: FACS blocking, biotin-IL-13 on IL-13Ra2 HEK293 cells; antibody at 0.002 nM
[14] = target: his-labeled human IL-13 (immunogen A) (human) (UniProt P35225); test: FACS blocking, biotin-IL-13 on IL-13Ra2 HEK293 cells; antibody at 33.33 nM
[15] = target: his-labeled human IL-13 (immunogen A) (human) (UniProt P35225); test: FACS blocking, biotin-IL-13 on IL-13Ra2 HEK293 cells; antibody at 166.67 nM
[16] = target: his-labeled human IL-13 (immunogen A) (human) (UniProt P35225); test: FACS blocking, biotin-IL-13 on IL-13Ra1/IL-4Ra HEK293 cells; antibody at 0.01 nM
[17] = target: his-labeled human IL-13 (immunogen A) (human) (UniProt P35225); test: FACS blocking, biotin-IL-13 on IL-13Ra1/IL-4Ra HEK293 cells; antibody at 0.05 nM
[18] = target: his-labeled human IL-13 (immunogen A) (human) (UniProt P35225); test: FACS blocking, biotin-IL-13 on IL-13Ra1/IL-4Ra HEK293 cells; antibody at 0.27 nM
[19] = target: his-labeled human IL-13 (immunogen A) (human) (UniProt P35225); test: FACS blocking, biotin-IL-13 on IL-13Ra1/IL-4Ra HEK293 cells; antibody at 1.33 nM
[20] = target: his-labeled human IL-13 (immunogen A) (human) (UniProt P35225); test: FACS blocking, biotin-IL-13 on IL-13Ra1/IL-4Ra HEK293 cells; antibody at 6.67 nM
[21] = target: his-labeled human IL-13 (immunogen A) (human) (UniProt P35225); test: FACS blocking, biotin-IL-13 on IL-13Ra1/IL-4Ra HEK293 cells; antibody at 0.002 nM
[22] = target: his-labeled human IL-13 (immunogen A) (human) (UniProt P35225); test: FACS blocking, biotin-IL-13 on IL-13Ra1/IL-4Ra HEK293 cells; antibody at 33.33 nM
[23] = target: his-labeled human IL-13 (immunogen A) (human) (UniProt P35225); test: FACS blocking, biotin-IL-13 on IL-13Ra1/IL-4Ra HEK293 cells; antibody at 166.67 nM
[24] = target: his-labeled human IL-13 (immunogen A) (human) (UniProt P35225); test: FACS blocking assay: antibody titrated with biotin-labeled immunogen A (30 ng/mL); blocked partner IL-13Ra1/IL-4Ra on HEK293 clone 4C1; Alexa 488 streptavidin
[25] = target: his-labeled human IL-13R130Q variant (human) (UniProt P35225); test: ELISA, IL-13R130Q variant; antibody at 0.11 nM
[26] = target: his-labeled human IL-13R130Q variant (human) (UniProt P35225); test: ELISA, IL-13R130Q variant; antibody at 0.004 nM

Sequence of cynomolgus IL-13 (purchased from sino biological) (cynomolgus) (Q0PW92 entry or part of it): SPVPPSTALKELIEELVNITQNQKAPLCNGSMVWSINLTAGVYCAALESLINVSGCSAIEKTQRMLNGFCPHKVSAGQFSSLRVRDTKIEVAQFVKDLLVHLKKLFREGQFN
Sequence of his-labeled human IL-13R130Q variant (human) (P35225 other isoform, or with tags, fused parts or gaps mutant): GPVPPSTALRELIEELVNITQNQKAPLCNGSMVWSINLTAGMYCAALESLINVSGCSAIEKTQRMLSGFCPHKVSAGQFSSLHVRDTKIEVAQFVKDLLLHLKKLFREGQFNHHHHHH

Periostin (pg/mL), MRCS cells + IL-13 5 ng/mL; antibody at 0.0002 nM [1]: 7090 pg/mL | Periostin (pg/mL), MRCS cells + IL-13 5 ng/mL; antibody at 0.001 nM [1]: 6350 pg/mL | Periostin (pg/mL), MRCS cells + IL-13 5 ng/mL; antibody at 0.004 nM [1]: 5500 pg/mL | Periostin (pg/mL), MRCS cells + IL-13 5 ng/mL; antibody at 0.021 nM [1]: 4920 pg/mL | Periostin (pg/mL), MRCS cells + IL-13 5 ng/mL; antibody at 0.11 nM [1]: 4130 pg/mL | Periostin (pg/mL), MRCS cells + IL-13 5 ng/mL; antibody at 0.53 nM [1]: 1650 pg/mL | Periostin (pg/mL), MRCS cells + IL-13 5 ng/mL; antibody at 2.67 nM [1]: 1100 pg/mL | Periostin (pg/mL), MRCS cells + IL-13 5 ng/mL; antibody at 13.3 nM [1]: 1160 pg/mL | VCAM-1 fluorescence intensity, HUVEC + IL-13 0.5 ng/mL + TNFα; antibody at 0.0002 nM [1]: 379 | VCAM-1 fluorescence intensity, HUVEC + IL-13 0.5 ng/mL + TNFα; antibody at 0.001 nM [1]: 346 | VCAM-1 fluorescence intensity, HUVEC + IL-13 0.5 ng/mL + TNFα; antibody at 0.004 nM [1]: 395 | VCAM-1 fluorescence intensity, HUVEC + IL-13 0.5 ng/mL + TNFα; antibody at 0.021 nM [1]: 404 | VCAM-1 fluorescence intensity, HUVEC + IL-13 0.5 ng/mL + TNFα; antibody at 0.11 nM [1]: 278 | VCAM-1 fluorescence intensity, HUVEC + IL-13 0.5 ng/mL + TNFα; antibody at 0.53 nM [1]: 227 | VCAM-1 fluorescence intensity, HUVEC + IL-13 0.5 ng/mL + TNFα; antibody at 2.67 nM [1]: 224 | VCAM-1 fluorescence intensity, HUVEC + IL-13 0.5 ng/mL + TNFα; antibody at 13.3 nM [1]: 207 | OD450 nm [2]: 0.54 | OD450 nm [3]: 2.4 | OD450 nm [4]: 1.34 | OD450 nm [5]: 0.073 | OD450 nm [6]: 0.085 | OD450 nm [7]: 0.83 | mean fluorescence intensity [8]: 99.1 | mean fluorescence intensity [9]: 97.8 | mean fluorescence intensity [10]: 92.9 | mean fluorescence intensity [11]: 77.7 | mean fluorescence intensity [12]: 65.7 | mean fluorescence intensity [13]: 102 | mean fluorescence intensity [14]: 64.8 | mean fluorescence intensity [15]: 58 | mean fluorescence intensity [16]: 102 | mean fluorescence intensity [17]: 95.6 | mean fluorescence intensity [18]: 93 | mean fluorescence intensity [19]: 76.6 | mean fluorescence intensity [20]: 65.2 | mean fluorescence intensity [21]: 102 | mean fluorescence intensity [22]: 61.9 | mean fluorescence intensity [23]: 51.2 | IC50 (read off the curve) [24]: 1 nM
B1: c28A2E11 (mouse-human chimeric IL-13 antibody) (antibody, V domains shown)
VH: EVQLQQSGAELVKPGASVKLSCTASGFNIKDYYMHWVKQRTEQGLEWIGRIDPEDGETKYAPKFHDKATLTADTSSNTAYLQFSSLASEDTAVYYCTRYDYYGPFAYWGQGTLVTVSA
VL: QAVVTQESVLTTSPGETVTLTCRSSTGAVTTSNYANWVQEKPDHLFTGLIGGTNNRAPGVPARFSGSLIGDKAALTITGAQTEDEAIYFCALWYINHFIFGSGTKVTVL

Periostin (pg/mL), MRCS cells + IL-13 5 ng/mL; antibody at 0.0002 nM [1]: 6190 pg/mL | Periostin (pg/mL), MRCS cells + IL-13 5 ng/mL; antibody at 0.001 nM [1]: 4630 pg/mL | Periostin (pg/mL), MRCS cells + IL-13 5 ng/mL; antibody at 0.004 nM [1]: 3480 pg/mL | Periostin (pg/mL), MRCS cells + IL-13 5 ng/mL; antibody at 0.021 nM [1]: 3570 pg/mL | Periostin (pg/mL), MRCS cells + IL-13 5 ng/mL; antibody at 0.11 nM [1]: 3220 pg/mL | Periostin (pg/mL), MRCS cells + IL-13 5 ng/mL; antibody at 0.53 nM [1]: 1450 pg/mL | Periostin (pg/mL), MRCS cells + IL-13 5 ng/mL; antibody at 2.67 nM [1]: 927 pg/mL | Periostin (pg/mL), MRCS cells + IL-13 5 ng/mL; antibody at 13.3 nM [1]: 1150 pg/mL | TARC (pg/mL), A549 cells + IL-13 + TNFα; antibody at 0.001 nM [1]: 3160 pg/mL | TARC (pg/mL), A549 cells + IL-13 + TNFα; antibody at 0.004 nM [1]: 2950 pg/mL | TARC (pg/mL), A549 cells + IL-13 + TNFα; antibody at 0.021 nM [1]: 2730 pg/mL | TARC (pg/mL), A549 cells + IL-13 + TNFα; antibody at 0.11 nM [1]: 1850 pg/mL | TARC (pg/mL), A549 cells + IL-13 + TNFα; antibody at 0.53 nM [1]: 655 pg/mL | TARC (pg/mL), A549 cells + IL-13 + TNFα; antibody at 2.67 nM [1]: 159 pg/mL | TARC (pg/mL), A549 cells + IL-13 + TNFα; antibody at 13.3 nM [1]: 50 pg/mL | TARC (pg/mL), A549 cells + IL-13 + TNFα; antibody at 66.7 nM [1]: 36 pg/mL | VCAM-1 fluorescence intensity, HUVEC + IL-13 0.5 ng/mL + TNFα; antibody at 0.0002 nM [1]: 364 | VCAM-1 fluorescence intensity, HUVEC + IL-13 0.5 ng/mL + TNFα; antibody at 0.001 nM [1]: 373 | VCAM-1 fluorescence intensity, HUVEC + IL-13 0.5 ng/mL + TNFα; antibody at 0.004 nM [1]: 393 | VCAM-1 fluorescence intensity, HUVEC + IL-13 0.5 ng/mL + TNFα; antibody at 0.021 nM [1]: 409 | VCAM-1 fluorescence intensity, HUVEC + IL-13 0.5 ng/mL + TNFα; antibody at 0.11 nM [1]: 251 | VCAM-1 fluorescence intensity, HUVEC + IL-13 0.5 ng/mL + TNFα; antibody at 0.53 nM [1]: 265 | VCAM-1 fluorescence intensity, HUVEC + IL-13 0.5 ng/mL + TNFα; antibody at 2.67 nM [1]: 246 | VCAM-1 fluorescence intensity, HUVEC + IL-13 0.5 ng/mL + TNFα; antibody at 13.3 nM [1]: 186 | OD450 nm [2]: 2.68 | OD450 nm [3]: 3.5 | OD450 nm [4]: 3.2 | OD450 nm [5]: 0.17 | OD450 nm [6]: 0.408 | OD450 nm [25]: 1.23 | OD450 nm [26]: 0.2 | mean fluorescence intensity [8]: 95.9 | mean fluorescence intensity [9]: 81.6 | mean fluorescence intensity [10]: 56.3 | mean fluorescence intensity [11]: 34.6 | mean fluorescence intensity [12]: 25 | mean fluorescence intensity [13]: 101 | mean fluorescence intensity [14]: 22.8 | mean fluorescence intensity [15]: 20.4 | mean fluorescence intensity [16]: 101 | mean fluorescence intensity [17]: 90.3 | mean fluorescence intensity [18]: 72.6 | mean fluorescence intensity [19]: 45.7 | mean fluorescence intensity [20]: 28.3 | mean fluorescence intensity [21]: 105 | mean fluorescence intensity [22]: 20.2 | mean fluorescence intensity [23]: 20 | IC50 (read off the curve) [24]: 0.5 nM
B2: c29D9H8 (mouse-human chimeric IL-13 antibody) (antibody, V domains shown)
VH: QVQLQQSGAELVRPGASVTLSCKASGYTFTDYEMHWVKQTPVHGLEWIGGIDPETGGTASNQKFKGKAILTADKSSSTAYMELRSLTSEDSAVYYCTSGDYFGGGPFAYWGQGTLVTVSA
VL: DIKMTQSPSSMYASLGERVTITCKASQDINSYLSWFQQKPGKSPKTLIYRANRLVDGVPSRFSGSGSGQDYSLTISSLDYEDMGIYYCLQYDEFPYTFGGGTKLEIK
